The results in this text go back to patent US20150376294A1 (RIGSHOSPITALET, published 2015).

Residue numbers refer to the chain shown, from its start.

The target in assay [1] is N343 (from amino acid 343 to the C-terminus) (human, UniProt Q9Y2J8 343-665). Nature of the assay: western blotting. The protocol: (§1) Different samples were loaded in gels (same procedure as SDS-PAGE) along with a pre-stained marker. […] The membrane was blocked in wash buffer and sliced into strips. Antibody culture supernatant (2 mL) was added 1:1 in diluting buffer and incubated 0/N at 4° C. HRP-conjugated rabbit anti mouse IgG was added 1:3000 followed by incubation 1 h/RT. Finally, the strips were washed, incubated 10 min in acetate buffer (50 mM CH3COOH, 33.75 mM NaOH, pH 5.0) and stained in carbazole staining solution (0.04% 3-amino-9-ethylcarbazole and 0.015% H2O2) in acetate buffer. Antibodies with affinity against the target protein were observed as red bands, and the approximate size could be held against the marker loaded on the gel.
Chain of N343 (from amino acid 343 to the C-terminus) (Q9Y2J8 343-665): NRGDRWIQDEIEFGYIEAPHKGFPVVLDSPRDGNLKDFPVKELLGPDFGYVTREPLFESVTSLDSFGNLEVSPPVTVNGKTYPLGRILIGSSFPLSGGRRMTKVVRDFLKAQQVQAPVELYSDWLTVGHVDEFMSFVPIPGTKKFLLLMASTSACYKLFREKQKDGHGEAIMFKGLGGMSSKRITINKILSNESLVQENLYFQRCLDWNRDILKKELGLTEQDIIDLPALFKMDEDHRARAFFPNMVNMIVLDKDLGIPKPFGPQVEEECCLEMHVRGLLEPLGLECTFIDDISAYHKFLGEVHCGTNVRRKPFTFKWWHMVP
(§2) Different splice variants of PAD2 were evaluated by western blotting.

In assay [2] the target is T1, human recombinant PAD4 (hrPAD4) (human, UniProt Q9UM07 1-663).
T1 construct: Recombinant, provided by Ger Pruijn; also called hPAD4; human PAD4
T1 sequence (Q9UM07 whole entry): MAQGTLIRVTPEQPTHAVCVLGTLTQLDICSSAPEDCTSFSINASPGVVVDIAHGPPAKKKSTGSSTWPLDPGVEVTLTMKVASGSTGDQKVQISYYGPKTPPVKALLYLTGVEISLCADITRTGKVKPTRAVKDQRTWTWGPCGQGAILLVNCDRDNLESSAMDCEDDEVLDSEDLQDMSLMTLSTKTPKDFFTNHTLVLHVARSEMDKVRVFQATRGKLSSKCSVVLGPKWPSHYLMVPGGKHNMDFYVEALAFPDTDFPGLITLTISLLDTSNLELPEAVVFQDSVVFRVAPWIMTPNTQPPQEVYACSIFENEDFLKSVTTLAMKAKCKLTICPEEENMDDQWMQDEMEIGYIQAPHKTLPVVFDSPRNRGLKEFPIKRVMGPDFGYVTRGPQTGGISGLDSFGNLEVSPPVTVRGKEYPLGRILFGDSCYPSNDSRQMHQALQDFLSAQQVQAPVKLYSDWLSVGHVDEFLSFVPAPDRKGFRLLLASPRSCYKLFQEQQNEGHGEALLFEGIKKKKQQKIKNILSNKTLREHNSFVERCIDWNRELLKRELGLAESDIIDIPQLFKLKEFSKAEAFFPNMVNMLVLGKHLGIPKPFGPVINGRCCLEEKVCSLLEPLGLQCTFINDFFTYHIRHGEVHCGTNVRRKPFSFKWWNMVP
The assay is described as follows: indirect ELISA, hrPAD4 coat 50 ng/mL.

Assay [3] has as its target T2, N165 (from amino acid 165 to the C-terminus) (human, UniProt Q9Y2J8 165-665).
T2 construct: also called N165 splice variant
The assay is described as follows: western blotting. The protocol: as §1, §2

The target of assay [4] is T3, Peptidylarginine Deiminase isolated from rabbit skeletal muscle (rPAD2) (rabbit, UniProt P20717 1-665 (rat entry), limits assumed).
T3 construct: Bought (Sigma-Aldrich), isolated from rabbit skeletal muscle; also called Rabbit PAD2; rabbit PAD2
T3 chain: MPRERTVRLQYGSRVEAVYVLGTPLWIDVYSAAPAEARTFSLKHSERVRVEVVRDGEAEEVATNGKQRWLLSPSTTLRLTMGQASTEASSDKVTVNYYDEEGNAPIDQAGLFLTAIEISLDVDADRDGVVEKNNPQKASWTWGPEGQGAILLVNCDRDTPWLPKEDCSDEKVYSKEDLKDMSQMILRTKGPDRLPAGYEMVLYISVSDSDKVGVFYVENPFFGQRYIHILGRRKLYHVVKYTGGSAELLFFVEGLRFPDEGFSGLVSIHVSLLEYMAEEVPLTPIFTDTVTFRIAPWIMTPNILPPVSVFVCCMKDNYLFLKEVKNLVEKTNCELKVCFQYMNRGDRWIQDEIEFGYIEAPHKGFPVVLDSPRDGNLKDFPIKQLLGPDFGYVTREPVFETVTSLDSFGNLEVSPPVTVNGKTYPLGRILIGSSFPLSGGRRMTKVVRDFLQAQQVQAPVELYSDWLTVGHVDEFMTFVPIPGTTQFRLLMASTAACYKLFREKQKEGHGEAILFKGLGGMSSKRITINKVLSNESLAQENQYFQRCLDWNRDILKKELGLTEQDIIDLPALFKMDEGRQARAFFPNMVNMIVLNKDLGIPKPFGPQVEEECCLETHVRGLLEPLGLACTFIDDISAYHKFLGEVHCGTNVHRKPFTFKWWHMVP
The assay is described as follows: western blotting, rPAD2. The protocol: FIG. 2. mAbs (monoclonal antibodies) reacting with rPAD2 in western blotting. Culture supernatants from mAbs #1-30, an irrelevant mAb (A) and no mAb (B) were tested 1:1 in diluting buffer against 1 μg/mL rabbit PAD2-unreduced. Rabbit anti mouse IgG (diluted 1:1000) was added, 1 h/RT. Development was performed in carbazole staining solution. Molecular weight markers (kDa) are indicated in the middle of the blot with Novex® Sharp Pre stained Protein Standard. A 4-12% Bis-Tris zoom gel was used.
as §1

T2 sequence (Q9Y2J8 165-665): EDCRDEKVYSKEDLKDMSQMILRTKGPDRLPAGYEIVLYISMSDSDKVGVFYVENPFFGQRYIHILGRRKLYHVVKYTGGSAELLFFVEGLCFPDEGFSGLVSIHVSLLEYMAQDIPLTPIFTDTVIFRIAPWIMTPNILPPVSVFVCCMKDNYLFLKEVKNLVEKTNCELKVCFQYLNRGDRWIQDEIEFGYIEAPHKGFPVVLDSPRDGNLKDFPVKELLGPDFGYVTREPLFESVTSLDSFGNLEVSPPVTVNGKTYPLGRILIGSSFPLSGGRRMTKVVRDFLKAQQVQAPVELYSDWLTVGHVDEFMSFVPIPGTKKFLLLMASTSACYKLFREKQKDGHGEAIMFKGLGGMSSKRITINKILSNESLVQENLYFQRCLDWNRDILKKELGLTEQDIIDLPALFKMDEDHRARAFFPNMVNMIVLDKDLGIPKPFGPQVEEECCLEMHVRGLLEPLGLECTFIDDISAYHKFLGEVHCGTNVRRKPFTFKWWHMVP

B1: mAb #6 (antibody, V domains shown)
VH: EVQLQQSGPDLVKPGASVKISCKASGYSFTAYYMHWVKQSHGESLEWIGRVNPNNGGSSYNQKFKGKAILTVHKSSNTAYMELRSLTSEDSAVYFCARGDYLPSLGYWGQGTSVTVSS
VL: DIVMTQSQKFMSTSVGDRVSVTCKASQNVDTTVAWYQQKPGQSPKALIYSASYRYSGVPDRFTGSGSGTDFTLTVTNVQSEDLAEYFCQQYDSYPFTFGSGTKLEIK
notes: Mouse IgG monoclonal antibody, unknown subtype; raised against rabbit PAD2
Take B1: the binding result in assay [1] and in assay [2] was “no binding” in each case.

B2: mAb #34 (antibody, V domains shown)
VH: EVQLQQSGPDLVKPGASVKISCKASGYSFTSYYMHWVKQSHGKSLEWIGRVNPNSGYTTYNQKFKGKAILTVDKSSSTAYMELRSLTSEDSAVYYCARGDYLPSMDYWGHGTSVTVSS
VL: B1 VL with I2F, V21I, D30G, T32N, A46G, V75I, T76S, Y91F, D92N
notes: as for B1
Turning to B2, the binding result in assay [1] and in assay [2] was “no binding” in each case.

B3: mAb #2 (antibody, V domains shown)
VH: QVQLQQPGAELVRPGASVKLSCKASGYTFTSYWMNWVKQRPGQGLEWIGMIDPSDSESYYNQMFKDKATLTVDKSSSTAYMQLSRLTSEDSAVYYCARKDYYAYGGAMDYWGQGTSVTVSS
VL: QIVLTQSPAILSASLGEEITLTCSANSSARYMHWYQQKSGTSPKLLIYSTSNLASGVPSRFSGSGSGTFYSLTLSSVEAEDAADYYCHQWSGYPTFGGGTKLEIKR
notes: as for B1
Consider B3, for which the binding result in assay [3] was “no binding”; in assay [1], “no binding”; in assay [2], “no binding”; in assay [4], “binds”.
